Results reported in patent US20080119406A1.

B1: recombinant caltrin (mouse, V5/His-tagged, secreted from baculovirus-infected Sf-9 cells) (ligand, not shown: small tags and cut ends)
chain: LICNSCEKSRDSRCTMPQSRCVAKPGESCSTVSHFVGTKHVYSKQMCSPQCKEKQLNTGKKLIYIMCCEKNLCNSF
B2: ^125I-caltrin (radiolabelled recombinant caltrin) (ligand, not shown: small tags and cut ends)
chain: B1 chain
modifications: 125I label by the lactoperoxidase method; labelled residues not stated

Experiments:
[1] = target: unidentified caltrin receptor on primary mouse calvarial osteoblasts (mouse); test: competition curve: unlabelled caltrin against 10 ng 125I-caltrin on primary calvarial osteoblasts, 4 C, 2 h
[2] = target: unidentified caltrin binding site on ST2 osteoblast-like cells; test: FACS-based binding, anti-caltrin and labelled anti-rabbit antibody
[3] = target: unidentified caltrin binding site on COS-7 monkey kidney cells (monkey); test: as above
[4] = target: unidentified caltrin receptor on primary mouse calvarial osteoblasts (mouse); test: saturation binding of 125I-caltrin on 2×10^5 primary mouse calvarial osteoblasts, Scatchard analysis

| Binder | Kd [1] [nM] | binding sites per cell (Bmax) (binding sites per cell) [1] | shift in the mean fluorescence [2] [%] | shift in the mean fluorescence [3] [%] | Kd [4] [nM] | binding sites per cell (binding sites per cell) [4] |
| --- | --- | --- | --- | --- | --- | --- |
| B1 | 2.2 | 14000 | 75 | 80 | – | – |
| B2 | – | – | – | – | 1.2 | 60000 |
